Assay results taken from US20210002330A1 (ASOCIACI N CENTRO DE INVESTIGACI N COOPERATIVA EN …, published 2021).

T1: fluorescein-labeled Hsp90 peptide (fluorescein label (position not given))
T1 construct: also called target peptide; C-terminal peptide of Hsp90
T1 peptide: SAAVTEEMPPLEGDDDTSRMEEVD

B1: CC1-CTPR390 (designed binder)
chain: AEAWCNLGCAYYKQGDYDEAIEYYQKALELDPRSACAWYCLGNAYYKQGDYDEAIEYYQKALELDPRSAEAWKNLGNAYYKQGDYQKAIEYYQKALELDPNNASAWYNLGNAYYKQGDYQKAIEYYQKALELDPNNAKAWYRRGNAYYKQGDYQKAIEDYQKALELDPNNAKAKQNLGNAKQKQG
notes: CC1 Cys-clamp module (modules C and C1 fused) joined to the Hsp90 recognition domain CTPR390; Expressed in E. coli and the His tag was cleaved with TEV
B2: CC1-CTPR390-AuNCs (designed binder)
chain: B1 chain
modifications: gold nanocluster (AuNC) stabilised on the protein (CC1 4-Cys clamp)
notes: also called CC1-CTPR390-AuNCs complex

How the values were obtained:
[1] = target: T1, fluorescein-labeled Hsp90 peptide; test: fluorescence anisotropy; protein titrated into 50 nM fluorescein-labeled Hsp90 peptide
Method: (§1) In addition, the ligand binding activity of the tested proteins was studied by using CC1-CTPR390, CC1-TPR2A, CC1-TPR2A_T332R_D334K proteins and its target peptide. […] Fluorescence intensities were recorded in a Perkin Elmer Fluorimeter equipped with excitation and emission polarizers. Excitation was accomplished with a 5 nm slit width at 492 nm and the emission recorded at 516 nm with slit width of 5 nm. […]

[2] = target: T1, fluorescein-labeled Hsp90 peptide; test: fluorescence anisotropy with fluorescein-labeled Hsp90 peptide; protein-stabilised gold nanocluster complex
Method: as §1
Finally, fluorescence anisotropy was used to monitor the interaction between the CC1-CTPR390-AuNCs, CC1-TPR2A-AuNCs and CC1-TPR2A_T332R_D334K-AuNCs complexes and a fluorescein-labeled Hsp90 peptide to determine the corresponding Kd value.

| Binder | Kd [1] [µM] | Kd [2] [µM] |
| --- | --- | --- |
| B1 | 110 |  |
| B2 |  | ~110 |
